Source: US20220402995A1 (TOSOH, published 2022)
Positions count from the first letter of the chain named.

Tests used:
[1] = target: T1, VLP2 (virus-like particles of AAV2) (AAV2, UniProt P03135 1-735; P03135 1-598; P03135 1-533); experiment: ELISA on VLP2; binding after 43°C 15 min / untreated
T1 construct: Empty AAV2 capsid; background says about 60 protein molecules, VP1:VP2:VP3 = 1:1:10; Immobilised on the ELISA plate

[2] = target: T1, VLP2 (virus-like particles of AAV2); experiment: ELISA on VLP2; binding after pH 10.0 41.2°C 15 min / untreated

T1 sequence (P03135 whole entry, chain 1 of 3): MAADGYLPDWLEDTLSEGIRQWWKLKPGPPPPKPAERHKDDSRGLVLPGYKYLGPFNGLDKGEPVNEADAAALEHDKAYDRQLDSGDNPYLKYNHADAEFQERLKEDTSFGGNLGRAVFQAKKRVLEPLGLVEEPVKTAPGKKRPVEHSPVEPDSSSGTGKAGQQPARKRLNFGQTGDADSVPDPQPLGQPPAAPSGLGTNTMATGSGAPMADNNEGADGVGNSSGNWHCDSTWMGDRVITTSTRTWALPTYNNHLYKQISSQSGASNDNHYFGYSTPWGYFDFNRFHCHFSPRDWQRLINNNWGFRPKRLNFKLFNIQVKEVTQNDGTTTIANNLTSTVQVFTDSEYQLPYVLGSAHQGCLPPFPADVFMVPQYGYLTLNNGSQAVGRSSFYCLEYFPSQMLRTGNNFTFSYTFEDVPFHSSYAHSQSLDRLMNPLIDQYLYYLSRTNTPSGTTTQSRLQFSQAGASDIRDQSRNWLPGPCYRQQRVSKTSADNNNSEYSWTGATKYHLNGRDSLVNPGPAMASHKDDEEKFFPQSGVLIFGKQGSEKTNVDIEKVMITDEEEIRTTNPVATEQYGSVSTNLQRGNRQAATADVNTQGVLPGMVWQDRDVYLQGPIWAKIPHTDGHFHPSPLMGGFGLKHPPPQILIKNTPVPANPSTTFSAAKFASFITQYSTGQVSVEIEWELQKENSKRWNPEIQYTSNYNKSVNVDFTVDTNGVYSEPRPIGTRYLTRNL
T1 sequence (P03135 139-735, tags left off, chain 2 of 3): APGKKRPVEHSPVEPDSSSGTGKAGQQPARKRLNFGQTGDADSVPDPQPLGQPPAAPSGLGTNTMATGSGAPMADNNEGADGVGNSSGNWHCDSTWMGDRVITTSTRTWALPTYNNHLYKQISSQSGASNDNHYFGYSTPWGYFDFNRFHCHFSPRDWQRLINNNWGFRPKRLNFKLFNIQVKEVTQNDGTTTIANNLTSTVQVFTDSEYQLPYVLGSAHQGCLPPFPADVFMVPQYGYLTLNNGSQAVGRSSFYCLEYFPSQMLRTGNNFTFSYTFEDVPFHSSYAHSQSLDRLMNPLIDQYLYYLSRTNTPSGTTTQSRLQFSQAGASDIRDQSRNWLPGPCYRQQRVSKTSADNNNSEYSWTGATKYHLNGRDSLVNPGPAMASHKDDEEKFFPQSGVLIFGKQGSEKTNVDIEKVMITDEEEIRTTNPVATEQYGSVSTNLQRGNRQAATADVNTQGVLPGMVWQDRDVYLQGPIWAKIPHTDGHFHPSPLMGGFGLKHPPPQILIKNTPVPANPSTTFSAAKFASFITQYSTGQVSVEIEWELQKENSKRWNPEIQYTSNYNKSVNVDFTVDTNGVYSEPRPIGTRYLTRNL
T1 sequence (P03135 203-735, chain 3 of 3): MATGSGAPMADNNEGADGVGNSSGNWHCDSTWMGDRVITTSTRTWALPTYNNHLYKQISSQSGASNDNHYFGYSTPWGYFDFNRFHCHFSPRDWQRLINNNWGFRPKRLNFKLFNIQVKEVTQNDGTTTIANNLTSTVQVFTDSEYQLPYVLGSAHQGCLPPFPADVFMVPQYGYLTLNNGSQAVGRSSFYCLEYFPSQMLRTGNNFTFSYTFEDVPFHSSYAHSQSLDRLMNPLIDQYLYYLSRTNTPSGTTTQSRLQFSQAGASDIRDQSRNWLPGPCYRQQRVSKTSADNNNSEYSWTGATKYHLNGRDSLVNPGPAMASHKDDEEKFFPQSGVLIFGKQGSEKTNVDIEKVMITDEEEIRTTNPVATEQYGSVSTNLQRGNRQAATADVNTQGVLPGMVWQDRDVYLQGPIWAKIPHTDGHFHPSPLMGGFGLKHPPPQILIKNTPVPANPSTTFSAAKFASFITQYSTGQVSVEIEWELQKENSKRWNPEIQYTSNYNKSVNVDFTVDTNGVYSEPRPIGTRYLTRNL

B1: AAV-binding protein No. 1 (Asn324Asp) (receptor)
chain: MGSAGESVQITLPKDEVQLNAYVLQEPPKGETYTYDWQLITHPRDYSGEMEGKHSQILKLSKLTPGLYEFKVIVEGQNAHGEGYVNVTVKPEPRKNRPPIAIVSPQFQEISLPTTSTVIDGSQSTDDDKIVQYHWEELKGPLREEKISEDTAILKLSKLVPGNYTFSLTVVDSDGATNSTTANLTVNKAVDHHHHHH
- Residual activity [%] [1]: 46%

B2: AAV-binding protein No. 57 (Gln334Arg, Val381Ala, His389Arg, Tyr393Cys) (receptor)
chain: B1 chain with D15N, Q25R, V72A, H80R, Y84C
- Residual activity [%] [1]: 79%

B3: AAV-binding protein No. 110 (AVR8g + Glu360Val) (receptor)
chain: B1 chain with V8D, D15N, Y33C, E51V, K53E, K62N, G81S, K90E, S167R, N178D
- Residual activity [%] [2]: 33.3%

B4: AAV-binding protein No. 13 (Gly357Cys) (receptor)
chain: B1 chain with D15N, G48C
- Residual activity [%] [1]: 97%

B5: AAV-binding protein No. 14 (Gln365Arg) (receptor)
chain: B1 chain with D15N, Q56R
- Residual activity [%] [1]: 57.7%

B6: AAV-binding protein No. 54 (His363Leu, Ser364Pro, His389Leu) (receptor)
chain: B1 chain with D15N, H54L, S55P, H80L
- Residual activity [%] [1]: 87.2%

B7: AAV-binding protein No. 2 (Tyr331Cys) (receptor)
chain: B1 chain with D15N, Y22C
- Residual activity [%] [1]: 73.4%

B8: AAV-binding protein No. 5 (Asp345Asn) (receptor)
chain: B1 chain with D15N, D36N
- Residual activity [%] [1]: 71.4%

B9: AAV-binding protein No. 28 (Tyr331Cys, Glu384Gly) (receptor)
chain: B1 chain with D15N, Y22C, E75G
- Residual activity [%] [1]: 83.7%

B10: AAV-binding protein No. 19 (Val396Ala) (receptor)
chain: B1 chain with D15N, V87A
- Residual activity [%] [1]: 62.3%

B11: AAV-binding protein No. 48 (Ala330Gly, Gln347Pro, Lys371Glu) (receptor)
chain: B1 chain with D15N, A21G, Q38P, K62E
- Residual activity [%] [1]: 88.4%

B12: AAV-binding protein No. 6 (Trp346Leu) (receptor)
chain: B1 chain with D15N, W37L
- Residual activity [%] [1]: 85.7%

B13: AAV-binding protein No. 24 (Asn492Asp) (receptor)
chain: B1 chain with D15N, N183D
- Residual activity [%] [1]: 63.2%

B14: AAV-binding protein No. 8 (His351Leu) (receptor)
chain: B1 chain with D15N, H42L
- Residual activity [%] [1]: 68.7%

B15: AAV-binding protein No. 18 (Tyr393Cys) (receptor)
chain: B1 chain with D15N, Y84C
- Residual activity [%] [1]: 86.4%

B16: AAV-binding protein No. 39 (Ile366Thr, Gln441Leu) (receptor)
chain: B1 chain with D15N, I57T, Q132L
- Residual activity [%] [1]: 65.5%

B17: AAV-binding protein No. 42 (Ile319Phe, Pro322Leu, Lys448Arg) (receptor)
chain: B1 chain with I10F, P13L, D15N, K139R
- Residual activity [%] [1]: 56.6%

B18: AAV-binding protein No. 38 (Gln365Arg, Gln415Leu) (receptor)
chain: B1 chain with D15N, Q56R, Q106L
- Residual activity [%] [1]: 65.3%

B19: AAV-binding protein No. 109 (AVR8g + Glu360Lys) (receptor)
chain: B1 chain with V8D, D15N, Y33C, E51K, K53E, K62N, G81S, K90E, S167R, N178D
- Residual activity [%] [2]: 40.2%

B20: AAV-binding protein No. 34 (Trp346Arg, Glu458Gly) (receptor)
chain: B1 chain with D15N, W37R, E149G
- Residual activity [%] [1]: 78.1%

B21: AAV-binding protein No. 56 (Asn324Ser, Thr341Ala, Leu369Pro, Phe416Ser) (receptor)
chain: B1 chain with D15S, T32A, L60P, F107S
- Residual activity [%] [1]: 81.3%

B22: AAV-binding protein No. 105 (AVR8g + Arg353Cys) (receptor)
chain: B1 chain with V8D, D15N, Y33C, R44C, K53E, K62N, G81S, K90E, S167R, N178D
- Residual activity [%] [2]: 62.1%

B23: AAV-binding protein No. 25 (Asn324Asp, Tyr355His) (receptor)
chain: B1 chain with Y46H
- Residual activity [%] [1]: 77.6%

B24: AAV-binding protein No. 22 (Leu477Pro) (receptor)
chain: B1 chain with D15N, L168P
- Residual activity [%] [1]: 79.9%

B25: AAV-binding protein No. 104 (AVR8g + Tyr344Phe) (receptor)
chain: B1 chain with V8D, D15N, Y33C, Y35F, K53E, K62N, G81S, K90E, S167R, N178D
- Residual activity [%] [2]: 40.3%

B26: AAV-binding protein No. 46 (Asn329Asp, Ile366Thr, Lys368Arg) (receptor)
chain: B1 chain with D15N, N20D, I57T, K59R
- Residual activity [%] [1]: 49.3%

B27: AAV-binding protein No. 111 (AVR8g + Lys(Glu)362Gly) (receptor)
chain: B1 chain with V8D, D15N, Y33C, K53G, K62N, G81S, K90E, S167R, N178D
notes: Glu362 of AVR8g replaced by Gly
- Residual activity [%] [2]: 41.1%

B28: AAV-binding protein No. 103 (AVR8g + Glu340Val) (receptor)
chain: B1 chain with V8D, D15N, E31V, Y33C, K53E, K62N, G81S, K90E, S167R, N178D
- Residual activity [%] [2]: 35%

B29: AAV-binding protein No. 31 (Tyr342His, Ile349Thr) (receptor)
chain: B1 chain with D15N, Y33H, I40T
- Residual activity [%] [1]: 66.8%

B30: AAV-binding protein No. 37 (Gln365Arg, His389Gln) (receptor)
chain: B1 chain with D15N, Q56R, H80Q
- Residual activity [%] [1]: 70.1%

B31: AAV-binding protein No. 35 (Gln347Leu, Thr373Ala) (receptor)
chain: B1 chain with D15N, Q38L, T64A
- Residual activity [%] [1]: 85.9%

B32: AAV-binding protein No. 52 (Leu348Pro, Leu376Pro, Val396Ala) (receptor)
chain: B1 chain with D15N, L39P, L67P, V87A
- Residual activity [%] [1]: 80.9%

B33: AAV-binding protein No. 55 (Gln365Arg, Ser370Ala, Glu391Lys) (receptor)
chain: B1 chain with D15N, Q56R, S61A, E82K
- Residual activity [%] [1]: 65.7%

B34: AAV-binding protein No. 107 (AVR8g + Ser356Cys) (receptor)
chain: B1 chain with V8D, D15N, Y33C, S47C, K53E, K62N, G81S, K90E, S167R, N178D
- Residual activity [%] [2]: 67.6%

B35: AAV-binding protein No. 26 (Asn329Tyr, Lys399Arg) (receptor)
chain: B1 chain with D15N, N20Y, K90R
- Residual activity [%] [1]: 61.9%

B36: AAV-binding protein No. 7 (Leu348Pro) (receptor)
chain: B1 chain with D15N, L39P
- Residual activity [%] [1]: 69.6%

B37: AAV-binding protein No. 44 (Gln327Arg, Lys338Arg, Leu348Pro) (receptor)
chain: B1 chain with D15N, Q18R, K29R, L39P
- Residual activity [%] [1]: 76.1%

B38: AAV-binding protein No. 106 (AVR8g + Tyr355Cys) (receptor)
chain: B1 chain with V8D, D15N, Y33C, Y46C, K53E, K62N, G81S, K90E, S167R, N178D
- Residual activity [%] [2]: 63.8%

B39: AAV-binding protein No. 11 (Tyr355Asn) (receptor)
chain: B1 chain with D15N, Y46N
- Residual activity [%] [1]: 80.6%

B40: AAV-binding protein No. 51 (Leu333Pro, Pro337Leu, Thr350Met) (receptor)
chain: B1 chain with D15N, L24P, P28L, T41M
- Residual activity [%] [1]: 66.7%

B41: AAV-binding protein No. 23 (Asn487Asp) (receptor)
chain: B1 chain with D15N, N178D
- Residual activity [%] [1]: 58.3%

B42: AAV-binding protein No. 41 (Glu453Gly, Ser476Arg) (receptor)
chain: B1 chain with D15N, E144G, S167R
- Residual activity [%] [1]: 56.1%

B43: AAV-binding protein No. 10 (Arg353Cys) (receptor)
chain: B1 chain with D15N, R44C
- Residual activity [%] [1]: 84.3%

B44: AAV-binding protein No. 12 (Ser356Cys) (receptor)
chain: B1 chain with D15N, S47C
- Residual activity [%] [1]: 84.6%

B45: AAV-binding protein No. 15 (Leu367Pro) (receptor)
chain: B1 chain with D15N, L58P
- Residual activity [%] [1]: 56.9%

B46: AAV-binding protein No. 108 (AVR8g + Met359Leu) (receptor)
chain: B1 chain with V8D, D15N, Y33C, M50L, K53E, K62N, G81S, K90E, S167R, N178D
- Residual activity [%] [2]: 32.4%

B47: AAV-binding protein No. 112 (AVR8g + Ser364Leu) (receptor)
chain: B1 chain with V8D, D15N, Y33C, K53E, S55L, K62N, G81S, K90E, S167R, N178D
- Residual activity [%] [2]: 45.3%

B48: AAV-binding protein No. 17 (Phe379Ser) (receptor)
chain: B1 chain with D15N, F70S
- Residual activity [%] [1]: 80.9%

B49: AAV-binding protein No. 20 (Lys399Glu) (receptor)
chain: B1 chain with D15N, K90E
- Residual activity [%] [1]: 63.3%

B50: AAV-binding protein No. 3 (Lys338Glu) (receptor)
chain: B1 chain with D15N, K29E
- Residual activity [%] [1]: 52.6%

B51: AAV-binding protein No. 4 (Tyr344His) (receptor)
chain: B1 chain with D15N, Y35H
- Residual activity [%] [1]: 88.2%

B52: AAV-binding protein No. 40 (Phe379Ser, Lys455Arg) (receptor)
chain: B1 chain with D15N, F70S, K146R
- Residual activity [%] [1]: 77.4%

B53: AAV-binding protein No. 21 (Tyr442Phe) (receptor)
chain: B1 chain with D15N, Y133F
- Residual activity [%] [1]: 48.7%

B54: AAV-binding protein No. 27 (Tyr331Cys, Leu376Pro) (receptor)
chain: B1 chain with D15N, Y22C, L67P
- Residual activity [%] [1]: 74.4%

B55: AAV-binding protein No. 50 (Val332Gln, Tyr342Cys, Val412Ala) (receptor)
chain: B1 chain with D15N, V23Q, Y33C, V103A
- Residual activity [%] [1]: 80.3%

B56: AAV-binding protein No. 33 (Tyr344His, His363Arg) (receptor)
chain: B1 chain with D15N, Y35H, H54R
- Residual activity [%] [1]: 82.2%
